Biological target: Cas9 (SpCas9) (Streptococcus pyogenes, UniProt Q99ZW2 1-1368)
Test: HDX-MS; protein:RNA 1:10 molar ratio; sgRNA without DNA; 9 peptides with reduced and 21 with increased deuterium uptake on binding; HDX buffer, pH and temperature not given in the material (section 3.4 text absent); complex at 1:10 Cas9:sgRNA formed immediately before exchange, D2O incubation 1-480 min
Settings: protein: recombinant; tags: His-tag removed with TEV protease; single-strand sgRNA with repeat-antirepeat and stem-loops

Sequence of Cas9 (SpCas9) (Q99ZW2 whole entry): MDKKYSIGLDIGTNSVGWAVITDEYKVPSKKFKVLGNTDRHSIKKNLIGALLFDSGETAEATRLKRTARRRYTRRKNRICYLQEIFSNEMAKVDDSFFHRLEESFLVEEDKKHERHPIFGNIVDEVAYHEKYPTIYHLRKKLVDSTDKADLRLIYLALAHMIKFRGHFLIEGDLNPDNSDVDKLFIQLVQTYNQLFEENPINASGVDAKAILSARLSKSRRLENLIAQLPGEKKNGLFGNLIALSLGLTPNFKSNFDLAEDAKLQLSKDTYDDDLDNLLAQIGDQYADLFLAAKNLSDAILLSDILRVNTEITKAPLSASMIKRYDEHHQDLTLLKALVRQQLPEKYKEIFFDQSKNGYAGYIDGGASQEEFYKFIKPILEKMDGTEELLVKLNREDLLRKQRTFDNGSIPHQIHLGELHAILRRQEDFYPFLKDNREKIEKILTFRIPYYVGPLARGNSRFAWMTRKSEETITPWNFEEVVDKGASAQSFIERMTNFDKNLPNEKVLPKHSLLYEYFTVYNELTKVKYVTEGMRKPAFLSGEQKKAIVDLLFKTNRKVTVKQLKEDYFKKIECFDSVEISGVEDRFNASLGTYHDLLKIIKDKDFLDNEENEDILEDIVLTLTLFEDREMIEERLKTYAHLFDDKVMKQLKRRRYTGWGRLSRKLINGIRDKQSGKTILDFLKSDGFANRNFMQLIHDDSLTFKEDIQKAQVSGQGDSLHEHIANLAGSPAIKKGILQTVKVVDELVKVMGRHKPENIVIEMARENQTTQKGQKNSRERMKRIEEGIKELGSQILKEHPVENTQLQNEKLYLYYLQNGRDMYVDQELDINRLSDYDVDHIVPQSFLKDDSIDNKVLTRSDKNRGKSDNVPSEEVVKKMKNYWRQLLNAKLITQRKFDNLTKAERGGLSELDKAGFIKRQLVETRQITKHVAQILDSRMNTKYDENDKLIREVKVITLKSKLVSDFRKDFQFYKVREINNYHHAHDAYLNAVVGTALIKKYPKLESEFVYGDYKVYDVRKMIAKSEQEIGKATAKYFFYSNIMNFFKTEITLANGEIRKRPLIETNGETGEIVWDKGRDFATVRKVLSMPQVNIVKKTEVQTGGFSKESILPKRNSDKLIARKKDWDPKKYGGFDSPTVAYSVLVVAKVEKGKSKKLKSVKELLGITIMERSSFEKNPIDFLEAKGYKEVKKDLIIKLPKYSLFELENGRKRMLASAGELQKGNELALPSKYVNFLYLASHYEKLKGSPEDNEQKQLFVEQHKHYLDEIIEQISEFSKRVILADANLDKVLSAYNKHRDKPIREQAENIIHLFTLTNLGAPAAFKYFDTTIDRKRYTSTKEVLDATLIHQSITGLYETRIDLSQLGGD

B1: sgRNA (103 nt) (structured_RNA)
RNA: GGUUGGACAUGCUCGACAUUCGUUUUAGAGCUAGAAAUAGCAAGUUAAAAUAAGGCUAGUCCGUUAUCAACUUGAAAAAGUGGCACCGAGUCGGUGCUUUUUU
B1: binds.
